A word on the Kd: it is the constant that tells how readily two partners part at equilibrium. Higher therefore signals lower affinity. As a reminder, the koff is the first-order rate constant of dissociation. Higher therefore signals fast dissociation. The term kon denotes the second-order rate constant of association.

Experimental findings from patent US20200055919A1 (ACCELERON PHARMA, published 2020) are described below.

Experiment [1] has as its target T1, BMP10 (UniProt O95393 317-424).
T1 sequence (looked up): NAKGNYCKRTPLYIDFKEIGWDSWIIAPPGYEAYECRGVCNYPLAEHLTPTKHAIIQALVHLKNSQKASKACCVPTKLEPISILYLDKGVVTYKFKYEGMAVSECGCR
Nature of the experiment: SPR (Biacore), 37 C. On the procedure:
(§1) A Biacore™-based binding assay was used to compare the ligand binding kinetics of an ActRIIB-Fc:ActRIIB(L79E)-Fc heterodimer with those of unmodified ActRIIB-Fc homodimer. Fusion proteins were captured onto the system using an anti-Fc antibody. Ligands were then injected and allowed to flow over the captured receptor protein at 37° C. Results are summarized in the table below, in which ligand off-rates (kd) most indicative of effective ligand traps are denoted in bold.

In experiment [2] the target is T2, activin A (UniProt P08476 311-426).
T2 sequence (looked up): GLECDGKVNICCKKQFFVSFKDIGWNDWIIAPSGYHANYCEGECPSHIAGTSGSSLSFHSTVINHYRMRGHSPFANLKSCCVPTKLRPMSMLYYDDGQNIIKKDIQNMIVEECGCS
Nature of the experiment: SPR (Biacore), 37 C. On the procedure:
as §1

Experiment [3] has as its target T1, BMP10. The experiment in a line: SPR (Biacore), Fc fusion captured by anti-Fc antibody, ligand injected, 37 C. The procedure: as §1
(Surface plasmon resonance follows binding to a sensor surface in real time, without labels.)

The next experiment deals with T3, BMP9 (UniProt Q9UK05 320-429).
T3 sequence (looked up): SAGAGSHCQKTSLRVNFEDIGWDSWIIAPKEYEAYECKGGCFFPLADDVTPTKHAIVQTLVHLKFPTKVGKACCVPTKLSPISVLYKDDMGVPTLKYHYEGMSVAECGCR
The experiment is described as above. The procedure: as §1

For a further experiment, the target named is T4, BMP6 (UniProt P22004 382-513, limits assumed).
T4 sequence (looked up): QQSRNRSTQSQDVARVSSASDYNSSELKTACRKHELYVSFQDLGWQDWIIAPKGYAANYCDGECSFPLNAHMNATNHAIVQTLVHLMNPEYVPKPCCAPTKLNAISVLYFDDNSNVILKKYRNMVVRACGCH
The description is as above. The procedure: as §1

Experiment [4] addresses T2, activin A. The description is as above. On the procedure: as §1
A further experiment addresses T5, GDF3 (UniProt Q9NR23 251-364).
T5 sequence (looked up): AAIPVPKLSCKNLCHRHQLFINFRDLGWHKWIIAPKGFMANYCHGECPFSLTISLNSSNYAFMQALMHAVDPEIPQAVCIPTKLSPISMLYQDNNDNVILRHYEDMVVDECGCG
The experiment is described as above. On the procedure: as §1

A further experiment has as its target T6, GDF8 (UniProt O14793 267-375).
T6 construct: also called myostatin
T6 sequence (looked up): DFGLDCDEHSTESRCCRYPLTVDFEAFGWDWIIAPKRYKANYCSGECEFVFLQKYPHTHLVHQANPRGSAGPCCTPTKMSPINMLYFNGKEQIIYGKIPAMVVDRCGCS
The experiment is described as above. The procedure: as §1

The next experiment deals with T7, activin B (UniProt P09529 293-407).
T7 sequence (looked up): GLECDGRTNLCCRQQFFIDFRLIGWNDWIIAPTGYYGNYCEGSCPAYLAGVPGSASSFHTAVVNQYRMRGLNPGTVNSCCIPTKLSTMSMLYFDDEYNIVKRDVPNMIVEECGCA
Described as above. The procedure: as §1

A further experiment has as its target T8, GDF11 (UniProt O95390 299-407).
T8 construct: also called BMP11
T8 sequence (looked up): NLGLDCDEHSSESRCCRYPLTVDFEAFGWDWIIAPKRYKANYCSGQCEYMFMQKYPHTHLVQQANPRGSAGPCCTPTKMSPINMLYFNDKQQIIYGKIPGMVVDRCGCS
The experiment is described as above. The procedure: as §1

Changes are numbered by the printed parent chain. In names and notes the source's numbering stands.

B1: ActRIIB-Fc:ActRIIB(L79E)-Fc heterodimer (Fc fusion)
chain 1: GRGEAETRECIYYNANWELERTNQSGLERCEGEQDKRLHCYASWRNSSGTIELVKKGCWEDDFNCYDRQECVATEENPQVYFCCCEGNFCNERFTHLPEAGGPEVTYEPPPTAPT
chain 2: B1 chain 1 with E60L
notes: also called ActRIIB-Fc:ActRIIB(L79E)-Fc heteromer; not shown: linker and engineered G1Fc; linker and complementary engineered G1Fc
Regarding B1, the “fold faster off-rate compared to ActRIIB-Fc homodimer” value in the experiment with BMP10 [1] and with activin A [2] was roughly 10 fold in each case. Moreover, the Kd is 0.042 nM with BMP10 [3]; greater than 2.8 nM with BMP9; 0.056 nM in the experiment with BMP6; 0.17 nM with activin A [4]; 10 nM in the experiment with GDF3; 0.15 nM with GDF8. For the same molecule, the Kd was determined as 0.025 nM with activin B and 0.009 nM with GDF11. The koff with BMP10 [3] stood at 0.002 s⁻¹; with BMP6, 0.018 s⁻¹; with activin A [4], 0.0015 s⁻¹; with GDF3, 0.0059 s⁻¹; with GDF8, 0.0005 s⁻¹; with activin B it was 0.00021 s⁻¹. Further, the koff with GDF11 was 0.00036 s⁻¹. In addition, the kon with BMP10 [3] came out at 4.8e+07 M⁻¹ s⁻¹; with BMP6, 3.3e+08 M⁻¹ s⁻¹; with activin A [4], 8.8e+06 M⁻¹ s⁻¹; in the experiment with GDF3 it was 580000 M⁻¹ s⁻¹; in the experiment with GDF8 it was 3.4e+06 M⁻¹ s⁻¹; in the experiment with activin B, 8.3e+06 M⁻¹ s⁻¹. The molecule also gave an on-rate (kon) with GDF11 of 4e+07 M⁻¹ s⁻¹.
